From article PMC3834820, “Structural insight into LexA–RecA* interaction” (Nucleic Acids Research, 2013)

How the values were obtained:
[1] = target: the molecule itself; experiment: cross-linking; intermolecular disulphide between Cys24 of two LexA(M24C) subunits on oxidation with 0.5 mM 1,10-phenanthroline and 0.1 mM CuSO4, 30 min, room temperature
[2] = target: LexA wt (UniProt P0A7C2 1-202); experiment: SPR; 150 nM LexA; LexA-operator SPR: 20 mM NaH2PO4 pH 7.3, 0.14 M NaCl, 0.005% P20, 25 C; RecA-SKBT25: 20 mM NaH2PO4 pH 7.3, 1 mM ATPgS, 2 mM MgCl2, 0.05 mM Ellman's reagent, on; details: protein: recombinant; chain copies: 2; label: 3' TEG-biotin on S9; S7 pairs with the 3' 24 nt and S9 with the 5' 15 nt of S10; nick between S7 and S9; blunt

Row | Binder | binding result [1] | binding result [2]
1 | LexA(M24C), oxidized (disulphide-locked dimer in the DNA-binding state) (natural protein, E. coli, UniProt P0A7C2 1-202, looked up, intermolecular disulphide bond between the Cys24 residues of the two subunits, LexA repressor, E. coli, single-cysteine mutant M24C; The reduced form (20 mM DTT) was also used in the cleavage assay but is not made a molecule here; also called oxidized LexA(M24C); source: overexpressed from plasmid pLexAM24C, purified (Ni-NTA); oxidized with 0.5 mM 1,10-phenanthroline and 0.1 mM CuSO4, 30 min, room temperature) MKALTARQQEVFDLIRDHISQTGCPPTRAEIAQRLGFRSPNAAEEHLKALARKGVIEIVSGASRGIRLLQEEEEGLPLVGRVAAGEPLLAQQHIEGHYQVDPSLFKPNADFLLRVSGMSMKDIGIMDGDLLAVHKTQDVRNGQVVVARIDDEVTVKRLKKQGNKVELLPENSEFKPIVVDLRQQSFTIEGLAVGVIRNGDWL | binds | –
2 | tisB operator SPR fragment (dsDNA) DNA 1: GTTACTACTCGAGCGATTACTGTTTATTTATACAGTAAA DNA 2: TTTACTGTATAAATAAACAGTAAT DNA 3: CGCTCGAGTAGTAAC | – | binds
